System: retinoic acid receptor
Experiment: Retinoic acid receptor dependent transactivation (retinoic acid β promoter-luciferase reporter)
Type: cell-based
Settings: MCF-7 breast cancer cells transfected with reporter plasmid and wild-type or stable (S37A) mutant β-catenin; 9-cis retinoic acid, various doses, 48 hours
Experimental: FIG. 1 is a histogram depicting the enhancement of retinoic acid receptor-dependent transactivation by β-catenin. Luciferase activity, shown in relative light units, is illustrated for MCF-7 breast cancer cells transfected with the retinoic acid β promoter-luciferase reporter plasmid and a wild-type or a stable (S37A) mutant form of β-catenin (or vector alone, as a control) and treated with the indicated doses of 9-cis retinoic acid for 48 hours.
MCF-7 breast cancer cells were transfected with the retinoic acid β promoter-luciferase reporter plasmid and a wild-type or a stable (S37A) mutant form of β-catenin (see Orford et al., J. Biol. Chem. 272:24735-24738, 1997), and treated with various doses of 9-cis retinoic acid for 48 hours. The results, presented in FIG. 1, illustrate the activity of the reporter, measured in relative light units.

- activity of the reporter (luciferase activity, relative light units): augment the activity of the reporter
B1: β-catenin: cytoplasmic protein, expressed in cells by transfection as wild-type or stable (S37A) mutant form (protein, UniProt P35222 2-781, looked up)
Catenin beta-1: ATQADLMELDMAMEPDRKAAVSHWQQQSYLDSGIHSGATTTAPSLSGKGNPEEEDVDTSQVLYEWEQGFSQSFTQEQVADIDGQYAMTRAQRVRAAMFPETLDEGMQIPSTQFDAAHPTNVQRLAEPSQMLKHAVVNLINYQDDAELATRAIPELTKLLNDEDQVVVNKAAVMVHQLSKKEASRHAIMRSPQMVSAIVRTMQNTNDVETARCTAGTLHNLSHHREGLLAIFKSGGIPALVKMLGSPVDSVLFYAITTLHNLLLHQEGAKMAVRLAGGLQKMVALLNKTNVKFLAITTDCLQILAYGNQESKLIILASGGPQALVNIMRTYTYEKLLWTTSRVLKVLSVCSSNKPAIVEAGGMQALGLHLTDPSQRLVQNCLWTLRNLSDAATKQEGMEGLLGTLVQLLGSDDINVVTCAAGILSNLTCNNYKNKMMVCQVGGIEALVRTVLRAGDREDITEPAICALRHLTSRHQEAEMAQNAVRLHYGLPVVVKLLHPPSHWPLIKATVGLIRNLALCPANHAPLREQGAIPRLVQLLVRAHQDTQRRTSMGGTQQQFVEGVRMEEIVEGCTGALHILARDVHNRIVIRGLNTIPLFVQLLYSPIENIQRVAAGVLCELAQDKEAAEAIEAEGATAPLTELLHSRNEGVATYAAAVLFRMSEDKPQDYKKRLSVELTSSLFRTEPMAWNETADLGLDIGAQGEPLGYRQDDPSYRSFHSGGYGQDALGMDPMMEHEMGGHHPGADYPVDGLPDLGHAQDLMDGLPPGDSNQLAWFDTDL
